Laboratory results taken from publication PMC2647316 (Nucleic Acids Research, 2008).
Residue numbers refer to the chain shown, from its start.

What was measured:
Assay in all cases: SPR
GkDnaC R117A = target: T1, GkDnaC R117A (Geobacillus kaustophilus HTA426, UniProt Q5KU75 1-454, R117A)
T1 sequence: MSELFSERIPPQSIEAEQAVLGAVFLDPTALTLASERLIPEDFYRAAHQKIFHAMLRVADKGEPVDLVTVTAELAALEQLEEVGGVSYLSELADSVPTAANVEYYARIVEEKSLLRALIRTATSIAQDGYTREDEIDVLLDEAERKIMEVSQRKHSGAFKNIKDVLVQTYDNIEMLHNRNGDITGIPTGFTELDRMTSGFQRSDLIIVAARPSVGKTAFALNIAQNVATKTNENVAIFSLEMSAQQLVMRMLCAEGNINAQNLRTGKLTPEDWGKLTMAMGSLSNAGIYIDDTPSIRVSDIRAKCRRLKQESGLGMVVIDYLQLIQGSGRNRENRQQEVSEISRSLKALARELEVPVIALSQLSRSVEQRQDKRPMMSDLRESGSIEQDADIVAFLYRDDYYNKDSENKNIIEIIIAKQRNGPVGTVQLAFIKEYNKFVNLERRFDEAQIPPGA

[1] = target: T2, GkDnaC R145K146A double mutant (Geobacillus kaustophilus HTA426, UniProt Q5KU75 1-454, R145A;K146A)
T2 sequence: T1 sequence with A117R, R145A, K146A

GkDnaC R145A = target: T3, GkDnaC R145A (Geobacillus kaustophilus HTA426, UniProt Q5KU75 1-454, R145A)
T3 sequence: T1 sequence with A117R, R145A

GkDnaC R330A = target: T4, GkDnaC R330A (Geobacillus kaustophilus HTA426, UniProt Q5KU75 1-454, R330A)
T4 sequence: T1 sequence with A117R, R330A

B1: 5'Bio-(dT)30 (ssDNA)
DNA: TTTTTTTTTTTTTTTTTTTTTTTTTTTTTT
Kd (GkDnaC R117A): 1.47 µM | Kd [1]: 27 µM | Kd (GkDnaC R145A): 1.39 µM | Kd (GkDnaC R330A): 17.8 µM
